Data on three molecules can be found in publication PMC11330476.

Assay [1] has as its target PneKC without His tag, co-expressed with N-terminally His-tagged PneA (Streptococcus pneumoniae). Put plainly: negative-stain EM.
In assay [2] the target is T1, PneKC, wild type, N-terminally His-tagged, expressed without PneA (apo PneKC) (Streptococcus pneumoniae). The assay can be described thus: negative-stain EM.
The target of assay [3] is T1, PneKC, wild type, N-terminally …. Put plainly: SEC. Background: In gel filtration, larger molecules generally elute earlier.
Assay [4] concerns the target PneKC, wild type, N-terminal His7 tag, co-expressed with PneA from pQLinkN-PneKC-PneA (Streptococcus pneumoniae). Put plainly: SEC.

The molecule “PneKC without His tag, co-expressed with N-terminally His-tagged PneA (enzyme)” yielded a stoichiometry N in assay [1] of 2.

B1: PneKC, wild type, N-terminally His-tagged, expressed without PneA (apo PneKC) (enzyme)
chain: MDYNFNLEHPFFFTNNDYSTDTSIKYQASLPFNWHEVMNNDEWVYQYPIGKFVERQGWKIHISSEYNSSHELLQDVAKICHEMRIPFKHLSTEDKFIMRNGKLVSRGFSGKFITCYPNQNELESVLQRLESALKQYNGPYILSDKRWDEAPIYLRYGVFRPSRDDEKKVAIDELIVGDEVVKDERLPVFKIPKGIVPPDFLNKWLDKKDKKQGDFPFIIDNAIRFSNSGGIYNARLKEDGKKIILKEARPYTGLGFDGTYSSEKLASECKALKILNEWSEAPKIYWHGKIWEHTFLGIEHMKGVPLNRWVTNNFPLYEVVDKTKDYLLRVSKIVEKLIDLTNKFHSENVYHQDLHLGNILVKDEDEISIIDWEQAVFSNDEKVVHKVAAPGFRAWRETLPSEIDWYGIRQIAHYLYMPLVTTSDLTYNYVSQTRIEGKKLFESLGYTREHIDYVESLLSYLDSKCPQIENISRKKVLKPMHEIRTIESEQDIQDFIIKLLRGFTLTYGQWRKEFQSRFFPVHYYGLNFNQGIAFSDLAILWSYQQLAKKVKNFKFDDYYEIRTQVINEAVNNFKKSSLSGLFDGKIGTIWLIYEFGEIDRAVELFTTHFIEIFENSQNKNLYSGQAGILLVGLYFLSKGEIDNKLGEEILIRLREYTLNYIENPETFCKVGASDVQSNDPYENFGGLLYGHAGVAWLFGEAYKLTGESIYKNGLELAVDKELVAYKVDSNNSLQYSQGHRLLPYLATGSAGLLLLINRNKEILSSKYLKYLTSLERATDVVFCVLPGLFNGFCGLEVANNIYSDIDDNFSGQKKLIEQLYRYLCVIEEGFVIAGDNGLKITTDIASGFAGVAIGLVSIMDNKLTILPQI
modifications: not checked
Consider B1, for which the stoichiometry N in assay [2] and in assay [3] was 2 in each case.

B2: PneKC, wild type, N-terminal His7 tag, co-expressed with PneA from pQLinkN-PneKC-PneA (enzyme)
chain: MDYNFNLEHPFFFTNNDYSTDTSIKYQASLPFNWHEVMNNDEWVYQYPIGKFVERQGWKIHISSEYNSSHELLQDVAKICHEMRIPFKHLSTEDKFIMRNGKLVSRGFSGKFITCYPNQNELESVLQRLESALKQYNGPYILSDKRWDEAPIYLRYGVFRPSRDDEKKVAIDELIVGDEVVKDERLPVFKIPKGIVPPDFLNKWLDKKDKKQGDFPFIIDNAIRFSNSGGIYNARLKEDGKKIILKEARPYTGLGFDGTYSSEKLASECKALKILNEWSEAPKIYWHGKIWEHTFLGIEHMKGVPLNRWVTNNFPLYEVVDKTKDYLLRVSKIVEKLIDLTNKFHSENVYHQDLHLGNILVKDEDEISIIDWEQAVFSNDEKVVHKVAAPGFRAWRETLPSEIDWYGIRQIAHYLYMPLVTTSDLTYNYVSQTRIEGKKLFESLGYTREHIDYVESLLSYLDSKCPQIENISRKKVLKPMHEIRTIESEQDIQDFIIKLLRGFTLTYGQWRKEFQSRFFPVHYYGLNFNQGIAFSDLAILWSYQQLAKKVKNFKFDDYYEIRTQVINEAVNNFKKSSLSGLFDGKIGTIWLIYEFGEIDRAVELFTTHFIEIFENSQNKNLYSGQAGILLVGLYFLSKGEIDNKLGEEILIRLREYTLNYIENPETFCKVGASDVQSNDPYENFGGLLYGHAGVAWLFGEAYKLTGESIYKNGLELAVDKELVAYKVDSNNSLQYSQGHRLLPYLATGSAGLLLLINRNKEILSSKYLKYLTSLERATDVVFCVLPGLFNGFCGLEVANNIYSDIDDNFSGQKKLIEQLYRYLCVIEEGFVIAGDNGLKITTDIASGFAGVAIGLVSIMDNKLTILPQI
modifications: not checked
For the molecule B2, the stoichiometry N in assay [4] is 2.

One may read the stoichiometry N as a count of units in the complex or per binding partner.
